Reference: article PMC12072009, “Catalytic Efficiency Improvement in Cellobiohydrolase I by Cross-Species Domain Exchange Engineering” (International Journal of Molecular Sciences, 2025)

Tests used:
Details in all cases: 50 mM citric acid sodium citrate buffer, pH 4.8, 50 °C
CT-CBH = test system: T1, CT-CBH; assay: fluorescence of released methylumbelliferone (ex […], em […] nm), Michaelis-Menten nonlinear fit; assay type: biochemical, Thermochaetoides thermophila; Trichoderma reesei
T1 construct: gene cbh1; single-chain fusion: C. thermophilum CBHI (GenBank AM711862.1) with its CBM replaced by that of T. reesei CBHI; secreted from T. reesei Tu-6 delta-ku70

TC-CBH = test system: T2, TC-CBH; assay: as above; assay type: biochemical, Trichoderma reesei; Thermochaetoides thermophila
T2 construct: gene cbh1; single-chain fusion: T. reesei CBHI with its CBM replaced by that of C. thermophilum CBHI (GenBank AM711862.1); secreted from T. reesei Tu-6 delta-ku70

purified protein [1] = substrate: Cc1cc(=O)oc2cc(O[C@@H]3O[C@H](CO)[C@@H](O[C@@H]4O[C@H](CO)[C@@H](O)[C@H](O)[C@H]4O)[C@H](O)[C@H]3O)ccc12; assay: purified protein; assay type: biochemical, Thermochaetoides thermophila
purified protein [2] = substrate: Cc1cc(=O)oc2cc(O[C@@H]3O[C@H](CO)[C@@H](O[C@@H]4O[C@H](CO)[C@@H](O)[C@H](O)[C@H]4O)[C@H](O)[C@H]3O)ccc12; assay: purified protein; assay type: biochemical, Trichoderma reesei

Molecule: Cc1cc(=O)oc2cc(O[C@@H]3O[C@H](CO)[C@@H](O[C@@H]4O[C@H](CO)[C@@H](O)[C@H](O)[C@H]4O)[C@H](O)[C@H]3O)ccc12 [MUC]
- Km (CT-CBH): 700 µM
- Km (TC-CBH): 1.2 mM

B1: C-CBH (Chaetomium thermophilum CBHI) (Thermochaetoides thermophila) (protein)
chain: QQACSLTAENHPSLTWKRCTSGGSCSTVNGAVTIDANWRWTHTVSGSTNCYTGNQWDTSLCTDGKSCAQTCCVDGADYSSTYGITTSGDSLNLKFVTKHQYGTNVGSRVYLMENDTKYQMFELLGNEFTFDVDVSNLGCGLNGALYFVSMDADGGMSKYSGNKAGAKYGTGYCDAQCPRDLKFINGEANVGNWTPSTNDANAGFGRYGSCCSEMDVWEANNMATAFTPHPCTTVGQSRCEADTCGGTYSSDRYAGVCDPDGCDFNAYRQGDKTFYGKGMTVDTNKKMTVVTQFHKNSAGVLSEIKRFYVQDGKIIANAESKIPGNPGNSITQEYCDAQKVAFSNTDDFNRKGGMAQMSKALAGPMVLVMSVWDDHYANMLWLDSTYPIDQAGAPGAERGACPTTSGVPAEIEAQVPNSNVIFSNIRFGPIGSTVPGLDGSNPGNPTTTVVPPASTSTSRPTSSTSSPVSTPTGQPGGCTTQKWGQCGGIGYTGCTNCVAGTTCTQLNPWYSQCL
notes: full length: catalytic domain, linker, CBM; secreted from T. reesei Tu-6 delta-ku70 (common signal peptide for all four constructs, cDNA1 promoter); no tag stated; concentrated by 30 kDa ultrafiltration
- Km (purified protein [1]): 1.1 mmol/L
- kcat (purified protein [1]): 1.56 s⁻¹
- kcat/Km (purified protein [1]): 1480 M⁻¹ s⁻¹

B2: T-CBH (Trichoderma reesei CBHI) (Trichoderma reesei QM6a) (protein)
chain: QSACTLQSETHPPLTWQKCSSGGTCTQQTGSVVIDANWRWTHATNSSTNCYDGNTWSSTLCPDNETCAKNCCLDGAAYASTYGVTTSGNSLSIGFVTQSAQKNVGARLYLMASDTTYQEFTLLGNEFSFDVDVSQLPCGLNGALYFVSMDADGGVSKYPTNTAGAKYGTGYCDSQCPRDLKFINGQANVEGWEPSSNNANTGIGGHGSCCSEMDIWEANSISEALTPHPCTTVGQEICEGDGCGGTYSDNRYGGTCDPDGCDWNPYRLGNTSFYGPGSSFTLDTTKKLTVVTQFETSGAINRYYVQNGVTFQQPNAELGSYSGNELNDDYCTAEEAEFGGSSFSDKGGLTQFKKATSGGMVLVMSLWDDYYANMLWLDSTYPTNETSSTPGAVRGSCSTSSGVPAQVESQSPNAKVTFSNIKFGPIGSTGNPSGGNPPGGNPPGTTTTRRPATTTGSSPGPTQSHYGQCGGIGYSGPTVCASGTTCQVLNPYYSQCL
notes: full length: catalytic domain, linker, CBM; secreted from T. reesei Tu-6 delta-ku70 (cDNA1 promoter); no tag stated; concentrated by 30 kDa ultrafiltration
- Km (purified protein [2]): 1.3 mmol/L
- kcat (purified protein [2]): 1.29 s⁻¹
- kcat/Km (purified protein [2]): 1030 M⁻¹ s⁻¹
